In patent US20140302043A1:

Assays:
Assay in all cases: cell-based or functional assay
[1] = target: hemagglutinin (HA) of H1N1 virus strain A/Auckland/65/2001 (influenza A virus H1N1, A/Auckland/65/2001)
[2] = target: hemagglutinin (HA) of H1N1 virus strain A/Bangkok/163/2000 (influenza A virus H1N1, A/Bangkok/163/2000)
[3] = target: hemagglutinin (HA) of H1N1 virus strain A/Beijing/262/1995 (influenza A virus H1N1, A/Beijing/262/1995)
[4] = target: hemagglutinin (HA) of H1N1 virus strain A/Brisbane/59/2007 (influenza A virus H1N1, A/Brisbane/59/2007)
[5] = target: hemagglutinin (HA) of H1N1 virus strain A/Canada/59/2004 (influenza A virus H1N1, A/Canada/59/2004)
[6] = target: hemagglutinin (HA) of H1N1 virus strain A/Chile/8885/2001 (influenza A virus H1N1, A/Chile/8885/2001)
[7] = target: hemagglutinin (HA) of H1N1 virus strain A/Florida/2/1993 (influenza A virus H1N1, A/Florida/2/1993)
[8] = target: hemagglutinin (HA) of H1N1 virus strain A/Fujian/156/2000 (influenza A virus H1N1, A/Fujian/156/2000)
[9] = target: hemagglutinin (HA) of H1N1 virus strain A/Johannesburg/159/1997 (influenza A virus H1N1, A/Johannesburg/159/1997)
[10] = target: hemagglutinin (HA) of H1N1 virus strain A/Kawasaki/6/1986 (influenza A virus H1N1, A/Kawasaki/6/1986)
[11] = target: hemagglutinin (HA) of H1N1 virus strain A/Moscow/13/1998 (influenza A virus H1N1, A/Moscow/13/1998)
[12] = target: hemagglutinin (HA) of H1N1 virus strain A/Neimenggu/52/2002 (influenza A virus H1N1, A/Neimenggu/52/2002)
[13] = target: hemagglutinin (HA) of H1N1 virus strain A/New Caledonia/22/1999 (influenza A virus H1N1, A/New Caledonia/22/1999)
[14] = target: hemagglutinin (HA) of H1N1 virus strain A/Ostrava/801/1998 (influenza A virus H1N1, A/Ostrava/801/1998)
[15] = target: hemagglutinin (HA) of H1N1 virus strain A/Shanghai/2/1997 (influenza A virus H1N1, A/Shanghai/2/1997)
[16] = target: hemagglutinin (HA) of H1N1 virus strain A/Shengzhen/227/1995 (influenza A virus H1N1, A/Shengzhen/227/1995)
[17] = target: hemagglutinin (HA) of H1N1 virus strain A/Solomon islands/03/2006, on virus (influenza A virus H1N1, A/Solomon Islands/03/2006)
[18] = target: hemagglutinin (HA) of H1N1 virus strain A/USSR/90/1977 (influenza A virus H1N1, A/USSR/90/1977)

Substance	mAb minimum effective concentration (EC99, microneutralization on MDCK cells) [1] [µg/mL]	mAb minimum effective concentration (EC99, microneutralization on MDCK cells) [2] [µg/mL]	mAb minimum effective concentration (EC99, microneutralization on MDCK cells) [3] [µg/mL]	mAb minimum effective concentration (EC99, microneutralization on MDCK cells) [4] [µg/mL]	mAb minimum effective concentration (EC99, microneutralization on MDCK cells) [5] [µg/mL]	mAb minimum effective concentration (EC99, microneutralization on MDCK cells) [6] [µg/mL]	mAb minimum effective concentration (EC99, microneutralization on MDCK cells) [7] [µg/mL]	mAb minimum effective concentration (EC99, microneutralization on MDCK cells) [8] [µg/mL]	mAb minimum effective concentration (EC99, microneutralization on MDCK cells) [9] [µg/mL]	mAb minimum effective concentration (EC99, microneutralization on MDCK cells) [10] [µg/mL]	mAb minimum effective concentration (EC99, microneutralization on MDCK cells) [11] [µg/mL]	mAb minimum effective concentration (EC99, microneutralization on MDCK cells) [12] [µg/mL]	mAb minimum effective concentration (EC99, microneutralization on MDCK cells) [13] [µg/mL]	mAb minimum effective concentration (EC99, microneutralization on MDCK cells) [14] [µg/mL]	mAb minimum effective concentration (EC99, microneutralization on MDCK cells) [15] [µg/mL]	mAb minimum effective concentration (EC99, microneutralization on MDCK cells) [16] [µg/mL]	mAb minimum effective concentration (EC99, microneutralization on MDCK cells) [17] [µg/mL]	mAb minimum effective concentration (EC99, microneutralization on MDCK cells) [18] [µg/mL]
mAb CH65, recombinant intact IgG1 (antibody)	0.195	0.195	0.098	0.098	0.098	0.195	0.012	0.488	0.098	0.098	0.012	0.098	0.391	12.5	0.195	0.012	0.024	100
mAb CH67 (antibody)	0.098	0.098	0.098	0.98	0.098	0.098	0.012	0.049	0.39	0.39	0.012	0.098	0.195		0.195	0.024	0.098	25
